Among the data in patent publication US20180119150A1 are one-hour uptake ratio values, retold here.

This experiment addresses FLT3 (human) (UniProt P36888). Description: cell-based or functional assay.
Chain of UniProt P36888 (P36888 27-993): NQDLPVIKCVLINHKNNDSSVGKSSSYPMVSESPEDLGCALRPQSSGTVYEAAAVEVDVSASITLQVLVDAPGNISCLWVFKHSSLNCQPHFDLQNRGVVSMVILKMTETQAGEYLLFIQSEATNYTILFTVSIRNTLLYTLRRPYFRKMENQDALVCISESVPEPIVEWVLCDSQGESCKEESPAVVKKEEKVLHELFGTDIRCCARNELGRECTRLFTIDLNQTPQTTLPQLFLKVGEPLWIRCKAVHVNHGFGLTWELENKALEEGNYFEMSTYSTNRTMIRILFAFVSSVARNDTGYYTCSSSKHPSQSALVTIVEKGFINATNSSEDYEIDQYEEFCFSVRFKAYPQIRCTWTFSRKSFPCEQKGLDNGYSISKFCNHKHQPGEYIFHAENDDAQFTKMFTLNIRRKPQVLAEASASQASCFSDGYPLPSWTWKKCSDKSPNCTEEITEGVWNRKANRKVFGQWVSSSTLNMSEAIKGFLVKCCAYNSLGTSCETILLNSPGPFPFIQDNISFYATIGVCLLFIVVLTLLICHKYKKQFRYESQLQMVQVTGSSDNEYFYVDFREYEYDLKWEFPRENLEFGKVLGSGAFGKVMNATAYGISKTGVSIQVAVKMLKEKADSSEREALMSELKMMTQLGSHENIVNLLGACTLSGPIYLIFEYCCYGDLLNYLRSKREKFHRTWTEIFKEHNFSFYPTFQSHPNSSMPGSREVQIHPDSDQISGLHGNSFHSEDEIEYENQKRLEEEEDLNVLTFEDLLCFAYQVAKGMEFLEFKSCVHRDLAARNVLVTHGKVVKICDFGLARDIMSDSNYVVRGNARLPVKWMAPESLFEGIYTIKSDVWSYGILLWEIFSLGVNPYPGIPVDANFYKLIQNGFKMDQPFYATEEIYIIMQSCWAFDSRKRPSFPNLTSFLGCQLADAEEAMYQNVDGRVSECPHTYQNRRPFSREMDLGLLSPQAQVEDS

Consider G7-H2B control nanoparticles, for which the one-hour uptake ratio was 5.9%.

On to “FLT3L-conjugated Generation 7 (G7) PAMAM (G7-FLT3L) dendrimers (from UniProt P49771 27-181) (ligand)”, for which the one-hour uptake ratio was 23.6%.
